Reference: article PMC9063202 (2022)

Legend:
[1] = target: T1, IRISIN protein (human recombinant IRISIN) (human, UniProt Q8NAU1 1-191); test: BLI
T1 chain: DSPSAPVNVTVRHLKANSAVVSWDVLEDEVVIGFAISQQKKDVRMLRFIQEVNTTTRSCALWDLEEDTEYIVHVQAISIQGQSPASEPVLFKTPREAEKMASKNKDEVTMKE

[2] = target: T1, IRISIN protein (human recombinant …); test: BLI

Kd [1]: 32.2 nM | koff [2]: 0.00384 s⁻¹
B1: TRPC3 protein (provided by Chen Lei Laboratory, Peking University) (natural protein)
chain: MEGSPSLRRMTVMREKGRRQAVRGPAFMFNDRGTSLTAEEERFLDAAEYGNIPVVRKMLEESKTLNVNCVDYMGQNALQLAVGNEHLEVTELLLKKENLARIGDALLLAISKGYVRIVEAILNHPGFAASKRLTLSPCEQELQDDDFYAYDEDGTRFSPDITPIILAAHCQKYEVVHMLLMKGARIERPHDYFCKCGDCMEKQRHDSFSHSRSRINAYKGLASPAYLSLSSEDPVLTALELSNELAKLANIEKEFKNDYRKLSMQCKDFVVGVLDLCRDSEEVEAILNGDLESAEPLEVHRHKASLSRVKLAIKYEVKKFVAHPNCQQQLLTIWYENLSGLREQTIAIKCLVVLVVALGLPFLAIGYWIAPCSRLGKILRSPFMKFVAHAASFIIFLGLLVFNASDRFEGITTLPNITVTDYPKQIFRVKTTQFTWTEMLIMVWVLGMMWSECKELWLEGPREYILQLWNVLDFGMLSIFIAAFTARFLAFLQATKAQQYVDSYVQESDLSEVTLPPEIQYFTYARDKWLPSDPQIISEGLYAIAVVLSFSRIAYILPANESFGPLQISLGRTVKDIFKFMVLFIMVFFAFMIGMFILYSYYLGAKVNAAFTTVEESFKTLFWSIFGLSEVTSVVLKYDHKFIENIGYVLYGIYNVTMVVVLLNMLIAMINSSYQEIEDDSDVEWKFARSKLWLSYFDDGKTLPPPFSLVPSPKSFVYFIMRIVNFPKCRRRRLQKDIEMGMGNSKSRLNLFTQSNSRVFESHSFNSILNQPTRYQQIMKRLIKRYVLKAQVDKENDEVNEGELKEIKQDISSLRYELLEDKSQATEELAILIHKLSEKLNPSMLRCE
